One data set deals with T1, IL-15 polypeptide (Homo sapiens (Human), UniProt P40933 49-162).
T1 construct: also called sIL15; soluble IL15
The experiment in a line: production of the SADA-Cytokine complex; no direct binding assay described.

Data set [1] concerns the molecule itself. The experiment in a line: HPLC, traces normalized to peak intensity; main peak is the self-assembled multimer.
Data set [2] concerns the molecule itself. The experiment in a line: fluorescence correlation spectroscopy; half-life of multimer dissociation, one-phase decay fit. The source says:
(§1) FIG. 4 depicts a summary of fluorescence correlation spectroscopy (FCS) experiment regarding the SADA domains used here. […] Measurements were taken with a Zeiss LSM 880 confocal microscope. Normalized autocorrelations functions G(T) were then plotted to determine the diffusion times for each SADA-BiDE over time. All samples were compared against a monomeric anti-GD2 BiDE.

A short description of data set [3]: HPLC after single-step affinity purification; main peak at about 16 min is the self-assembled tetramer (self-association through the p53 SADA domain).
Data set [4] concerns the molecule itself. The experiment in a line: fluorescence correlation spectroscopy; dissociation of the self-assembled multimer after dilution from 500 nM to 0.5 nM, Cy3-175Lu-Bn-DOTA label, one-phase decay fit.
Source text: as §1

Data set [5] is described as follows: HPLC after single-step affinity purification; main peak at about 16 min is the self-assembled tetramer (self-association through the p63 SADA domain).
The nature of data set [6]: HPLC after single-step affinity purification; main peak at about 16 min is the self-assembled tetramer (self-association through the p73 SADA domain).

T1 sequence (P40933 49-162 limits assumed): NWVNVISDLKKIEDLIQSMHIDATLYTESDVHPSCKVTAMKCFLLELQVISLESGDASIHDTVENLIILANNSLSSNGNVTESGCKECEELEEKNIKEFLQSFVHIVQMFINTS

B1: P73-Cytokine polypeptide (IL15Rα, huP73-tet, IgG3 spacer) (other)
chain: ITCPPPMSVEHADIWVKSYSLYSRERYICNSGFKRKAGTSSLTECVLNKATNVAHWTTPSLKCIRTPLGDTTHTSGRHGDEDTYYLQVRGRENFEILMKLKESLELMELVPQPLVDSYRQQQQLLQRPGGSGGAPHHHHHH
notes: The full complex is described as 8 pairs of IL15Rα/IL15; also called SADA-Cytokine
On to B1, for which the binding result (with IL-15 polypeptide; in data set [1]) was “binds” each time.

B2: P53-Cytokine polypeptide (IL15Rα, huP53-tet, IgG3 spacer) (other)
chain: ITCPPPMSVEHADIWVKSYSLYSRERYICNSGFKRKAGTSSLTECVLNKATNVAHWTTPSLKCIRTPLGDTTHTSGKPLDGEYFTLQIRGRERFEMFRELNEALELKDAQAGKEPGGSGGAPHHHHHH
notes: The full complex is described as 8 pairs of IL15Rα/IL15 (about 200 kDa); also called SADA-Cytokine
For the molecule B2, the binding result (with IL-15 polypeptide; in data set [1]) was “binds” each time.

B3: P53-BiDE (hu3F8-scFv, huC825-scFv, huP53-tet, GS linker, IgG3 spacer) (bispecific antibody)
chain: EIVMTQTPATLSVSAGERVTITCKASQSVSNDVTWYQQKPGQAPRLLIYSASNRYSGVPARFSGSGYGTEFTFTISSVQSEDFAVYFCQQDYSSFGCGTKLEIKRGGGGSGGGGSGGGGSGGGGSGGGGSGGGGSQVQLVESGPGVVQPGRSLRISCAVSGFSVTNYGVHWVRQPPGKCLEWLGVIWAGGITNYNSAFMSRLTISKDNSKNTVYLQMNSLRAEDTAMYYCASRGGHYGYALDYWGQGTLVTVSSGGGGSGGGGSGGGGSGGGGSHVQLVESGGGLVQPGGSLRLSCAASGFSLTDYGVHWVRQAPGKGLEWLGVIWSGGGTAYNTALISRFTISRDNSKNTLYLQMNSLRAEDTAVYYCARRGSYPYNYFDAWGCGTLVTVSSGGGGSGGGGSGGGGSQAVVTQEPSLTVSPGGTVTLTCGSSTGAVTASNYANWVQQKPGQCPRGLIGGHNNRPPGVPARFSGSLLGGKAALTLLGAQPEDEAEYYCALWYSDHWVIGGGTKLTVLGTPLGDTTHTSGKPLDGEYFTLQIRGRERFEMFRELNEALELKDAQAGKEPGGSGGAPHHHHHH
notes: Self-assembles into a homo-tetramer of about 200 kDa; Its targets GD2 (ganglioside) and Bn-DOTA (hapten) are not proteins; only the self-association is recorded; also called p53 SADA-BiDE
For orientation: half-life means the time needed for the level to fall by half in the phase considered. Higher therefore signals slow decline. Usually koff stands for the rate constant with which the complex falls apart. In data set [2], B3 displayed a half-life of 1.73 h. For the same molecule, in data set [3], the “% tetramer (HPLC purity, main peak)” value came to 94.4%. For the same molecule, the koff in data set [4] is 0.000112 s⁻¹.

B4: P63-Cytokine polypeptide (IL15Rα, huP63-tet, IgG3 spacer) (other)
chain: ITCPPPMSVEHADIWVKSYSLYSRERYICNSGFKRKAGTSSLTECVLNKATNVAHWTTPSLKCIRTPLGDTTHTSGRSPDDELLYLPVRGRETYEMLLKIKESLELMQYLPQHTIETYRQQQQQQHQHLLQKQGGSGGAPHHHHHH
notes: as for B1
As for B4, the binding result (with IL-15 polypeptide; in data set [1]) was “binds” in each case.

B5: P63-BiDE (hu3F8-scFv, huC825-scFv, huP63-tet, GS linker, IgG3 spacer) (bispecific antibody)
chain: EIVMTQTPATLSVSAGERVTITCKASQSVSNDVTWYQQKPGQAPRLLIYSASNRYSGVPARFSGSGYGTEFTFTISSVQSEDFAVYFCQQDYSSFGCGTKLEIKRGGGGSGGGGSGGGGSGGGGSGGGGSGGGGSQVQLVESGPGVVQPGRSLRISCAVSGFSVTNYGVHWVRQPPGKCLEWLGVIWAGGITNYNSAFMSRLTISKDNSKNTVYLQMNSLRAEDTAMYYCASRGGHYGYALDYWGQGTLVTVSSGGGGSGGGGSGGGGSGGGGSHVQLVESGGGLVQPGGSLRLSCAASGFSLTDYGVHWVRQAPGKGLEWLGVIWSGGGTAYNTALISRFTISRDNSKNTLYLQMNSLRAEDTAVYYCARRGSYPYNYFDAWGCGTLVTVSSGGGGSGGGGSGGGGSQAVVTQEPSLTVSPGGTVTLTCGSSTGAVTASNYANWVQQKPGQCPRGLIGGHNNRPPGVPARFSGSLLGGKAALTLLGAQPEDEAEYYCALWYSDHWVIGGGTKLTVLGTPLGDTTHTSGRSPDDELLYLPVRGRETYEMLLKIKESLELMQYLPQHTIETYRQQQQQQHQHLLQKQGGSGGAPHHHHHH
notes: Self-assembles into a homo-tetramer of about 200 kDa; also called p63 SADA-BiDE
B5 gave a half-life in data set [2] of 3.08 h. Further, in data set [5], the “% tetramer (HPLC purity, main peak)” value is 89.2%. In data set [4], this molecule gave a koff of 6.3e-05 s⁻¹.

B6: P73-BiDE (hu3F8-scFv, huC825-scFv, huP73-tet, GS linker, IgG3 spacer) (bispecific antibody)
chain: EIVMTQTPATLSVSAGERVTITCKASQSVSNDVTWYQQKPGQAPRLLIYSASNRYSGVPARFSGSGYGTEFTFTISSVQSEDFAVYFCQQDYSSFGCGTKLEIKRGGGGSGGGGSGGGGSGGGGSGGGGSGGGGSQVQLVESGPGVVQPGRSLRISCAVSGFSVTNYGVHWVRQPPGKCLEWLGVIWAGGITNYNSAFMSRLTISKDNSKNTVYLQMNSLRAEDTAMYYCASRGGHYGYALDYWGQGTLVTVSSGGGGSGGGGSGGGGSGGGGSHVQLVESGGGLVQPGGSLRLSCAASGFSLTDYGVHWVRQAPGKGLEWLGVIWSGGGTAYNTALISRFTISRDNSKNTLYLQMNSLRAEDTAVYYCARRGSYPYNYFDAWGCGTLVTVSSGGGGSGGGGSGGGGSQAVVTQEPSLTVSPGGTVTLTCGSSTGAVTASNYANWVQQKPGQCPRGLIGGHNNRPPGVPARFSGSLLGGKAALTLLGAQPEDEAEYYCALWYSDHWVIGGGTKLTVLGTPLGDTTHTSGRHGDEDTYYLQVRGRENFEILMKLKESLELMELVPQPLVDSYRQQQQLLQRPGGSGGAPHHHHHH
notes: Self-assembles into a homo-tetramer of about 200 kDa; also called p73 SADA-BiDE
Molecule B6 returned a half-life in data set [2] of 2.03 h. Moreover, the “% tetramer (HPLC purity, main peak)” value in data set [6] turned out to be 90.2%. In data set [4], this molecule had a koff of 9.5e-05 s⁻¹.

Values taken from US20250295794A1 (Memorial Sloan Kettering, published 2025).
